The values below come from US20030061635A1 (published 2003).

Assay [1] has as its target T1, Arabidopsis thaliana CaM isoform 2 (Arabidopsis thaliana, UniProt P0DH97 1-149).
T1 construct: also called CaM2; CaM-2
The assay is described as follows: slot blot of peptide probed with 35S-labeled AtCaM isoform.

Assay [2] concerns the target T2, Arabidopsis thaliana CaM isoform 6 (Arabidopsis thaliana, UniProt Q03509 1-149).
T2 construct: Used 35S-labeled, unlabeled or HRP-labeled, depending on the assay; also called CaM6; CaM-6
The description is as above.

Assay [3] addresses T3, Arabidopsis thaliana CaM isoform 4 (Arabidopsis thaliana, UniProt P0DH96 1-149).
T3 construct: Used 35S-labeled, unlabeled or HRP-labeled, depending on the assay; also called CaM4; CaM-4
Described as above.

For assay [4], the target named is T1, Arabidopsis thaliana CaM isoform 2. The assay is described as follows: tryptophan fluorescence spectroscopy, equimolar peptide and CaM (166 pmol each), excitation 290 nm. As to the method: (§1) FIG. 4A is the analysis of CaM binding to a synthetic 18-amino acid peptide (MP-1, SEQ ID NO:2) by electrophoretic mobility shift polyacrylamide gels with 4 M urea. Lane 1 contained CaM alone (166 pmol), lanes 2-4 contained CaM (166 pmol) and 166, 332 and 664 pmol, respectively of synthetic MP-1. BCaM is bovine CaM, CaM2, CaM4, and CaM6 are the 2, 4, and 6 isoforms of Arabidopsis CaM. […] CaM and MP-1 (166 pmol) were incubated in 5 mM Tris, pH 7.3 and 0.5 mM CaCl₂. The excitation was measured at 290 nm and bandwidth for excitation and emission was 5 nm.
(§2) The tryptophan fluorescence spectra of free and CaM-bound synthetic peptide were recorded with a Hitachi-F-3010/4010 spectrofluorimeter as described in Reddy et al. (1996) supra. NPG1 peptide and AtCaMs (166 pmol each) were mixed in a […] reaction volume. The tryptophan residue in free and CaM-bound synthetic NPG1 peptide was excited at 290 nm and the emission wavelength values were recorded from 300 to 400 nm with a bandwidth of 5 nm in a 5-mm quartz cell at 25° C. Samples were incubated for 1 h at 25° C. prior to spectroscopic measurements. Corrections were made for the protein and solvent blanks.

Assay [5] concerns the target T4, bovine CaM (calmodulin) (bovine, UniProt P62157 2-149). The assay is described as above. As to the method:
as §1, §2

Assay [6] addresses T2, Arabidopsis thaliana CaM isoform 6. The assay is described as above. As for the experimental part: as §1, §2
Assay [7] has as its target T3, Arabidopsis thaliana CaM isoform 4. The description is as above. As for the experimental part: as §1, §2
The target in assay [8] is T1, Arabidopsis thaliana CaM isoform 2. The assay is described as follows: gel mobility shift, 4 M urea, CaCl2; 166 pmol CaM and 166 pmol peptide. An excerpt: (§3) To determine the stoichiometry of the CaM-peptide complex, we performed binding studies using the synthetic peptide (MP-1) and CaM in the presence of Ca²⁺ or EGTA. The binding of the synthetic peptide to CaM was detected by a gel mobility shift assay in polyacrylamide gels containing 4 M urea (FIG. 4A). […] In the presence of CaCl₂ the synthetic peptide retarded the migration of CaM in the gel indicating the formation of a complex between the peptide and CaM (FIG. 4A). […] At a molar ratio of 2:1 and 4:1 (peptide:CaM), the entire CaM migrated as a complex, and the band corresponding to the free CaM disappeared (FIG. 4A, lanes 3 and 4).
(§4) The interaction of CaM with synthetic peptide was also analyzed using electrophoretic mobility shift of CaM in the presence of a synthetic peptide. Each of the AtCaM isoforms and bovine CaM (166 pmol) were incubated with increasing concentrations of maize NPG1-synthetic peptide (166, 332, and 664 pmol) in the presence of 4 M urea, in a buffer containing 100 mM Tris-HCl, pH 7.5, and 1 mM CaCl₂ or 5 mM EGTA at room temperature for 1 h in a total volume of […]. Then, […] of sample buffer (0.375 M Tris-HCl, pH 6.8, 30% glycerol, and 0.023% bromphenol blue) was added to the samples and the mixture was electrophoresed in 12% polyacrylamide gels containing 4 M urea or 7.5% glycerol, 0.375 M Tris-HCl, pH 8.8, and either 1 mM CaCl₂ or 5 mM EGTA. The gels were run at a constant voltage of 25 V per gel in an electrode buffer (25 mM Tris-HCl, pH 8.3, 192 mM glycine, and either 1 mM CaCl₂ or 5 mM EGTA). The gels were stained with 0.25% Coomassie Blue R-250 in 7.5% acetic acid and 50% methanol for 1 h and then destained with 30% methanol and 7% acetic acid.

In assay [9] the target is T4, bovine CaM (calmodulin). The assay is described as above.
Excerpt: as §3, §4

Assay [10] has as its target T2, Arabidopsis thaliana CaM isoform 6. Described as above.
Excerpt: as §3, §4

The target of assay [11] is T3, Arabidopsis thaliana CaM isoform 4. The assay is described as above.
Excerpt: as §3, §4

The target of assay [12] is T1, Arabidopsis thaliana CaM isoform 2. The assay is described as follows: tryptophan fluorescence spectroscopy, equimolar peptide and CaM, excitation 290 nm. As for the experimental part:
as §1, §2

Assay [13] has as its target T4, bovine CaM (calmodulin). The description is as above. As for the experimental part: as §1, §2
The target of assay [14] is T2, Arabidopsis thaliana CaM isoform 6. The description is as above. As to the method:
as §1, §2

Assay [15] deals with T3, Arabidopsis thaliana CaM isoform 4. The assay is described as above. As to the method: as §1, §2

ISSKEMVRLKKLVAYWKEQAGKK (Positive control peptide) [KCBP-peptide (CaM-binding peptide of kinesin-like calmodulin binding protein)]: the binding result in assay [1], in [2] and in [3] was “binds” throughout.

With AKLDQGSLLRVKAKLKVAQSSPM [synthetic peptide MP-2 (different region of maize NPG1, negative control)], the binding result in assay [1], in [2] and in [3] was “no binding” each time.

B1: synthetic peptide MP-1 (18-amino acid CaM-binding domain of maize NPG1) (peptide)
peptide: VSKGWRLLALILSAQQRF
notes: Chemically synthesized, purity about 95%; also called the synthetic peptide; maize NPG1-synthetic peptide
On to B1, for which the “tryptophan fluorescence intensity of the peptide with CaM (free peptide about 0.1)” value in assay [4] was about 8.4; in [5], about 6.1; in [6], about 6.1; in [7], about 4.5. In addition, the “percent of CaM shifted at a molar ratio of 1:1 (peptide:CaM)” value in [8], in assay [9], in assay [10] and in [11] was about 50% each time. Further, the “wavelength of peak tryptophan emission of the peptide with CaM (free peptide about 350 nm)” value in [12], in [13], in [14] and in assay [15] was about 315 nm in each case.
